Data: the DeepSol protein solubility set

assay: soluble on expression in E. coli; label from the status in PepcDB or PDB records

| Sequence | soluble on expression in E. coli |
| --- | --- |
| MAHHHHHHMSVRSGQFNYDAVARESPVGFTKITEGTTAVLEPPPKKKTCTSSAAPAPASNLSDEEADNQLVDQAVFYNPAQVVNRDLSISVIEVFSRLRLTEPRRRGGTNEGITILEALSATGLRAIRYYKEITNVRYIIANDMDADAVDCIVRNCAYNGVPVQYPTLMANMPAAAIELYAGEAEAEKGESATGASPRVGVRAGGAILPNLDDANDLMFRLAMNSNAHPGKRVCLVDAPAETSATASLRPLLQQELMDVVDLDPYGSASPFLDGAFRCIKEGGLMLVTSTDSAILCGNFADTAHAKYSSMPYKAAHCHEAAVRTLLACVERVANRHQKFIVPLLSLHIDFYVRCFFRVYKQPAETKLSACKLGYQLQCSSCSAFWVRPMATARQPRPSRQERRRQRRALAGRVNSDADEAEEEGKTAEGAAEASRAHARPRRLSKRVRDGSDDDEAVAHDVDGVRTEVYPASPSRHSHPKITPLTLQQMPSAASATSTTAATACPVCGSSIVLSGPLYAAPTQNCEFLQQLLALLHERASEGRLNAEARITGLVRIALEELPDCPLFYLLPDVASYVRVRCPPTPCIVGALARLGYRCSQVHCAAAGLKTDCPPEVLFRVMLQWKTVQDTLDPVGEATIEDGADKSKKKAPAASTAPRSLLVTPLAEADFTYDKAHDFRGRVTGVAKFVPNASGWGPRRRHRGAAAVPEAVECGNGEDNDGGSGEA | not soluble |
| MAHHHHHHMSVSRFRHSTGHVAKPQRHLLNVTSSTALWDGSNTISCNDKFVAVPWQTFGGTAVFKHDTFGRLAPNPPLVLGQKGQIIDVKFDPFNDQKLFTASEDGSIFGWGIPAEGLQSNILSPLVELKGHNKKCGIISFHPSANGVLASAGVDRVIKVWDVERGTAVNTISSLSDYATGLEWNLRGSLFCVASRDKTLRVIDPRDCTVVSSVESHASARSQRCIWCKRKDTIMTLGCSKSQQRQIKLWDTRKMESPYSVTELDQSSAAFIPMYDEDLNLLILGSKGENNVKCFELMNEGLTFSYEVNSNDPMKGLCMMPKWSLDVKKCEFGRLYQLTYHSLFTIEMLLPRKQSCTEFQGDVFPSTFADHSAMSADEFFRGANADPREYDLSGMFDGHSPRLMGGSTPSPEKLPVAVQAAKPLMEAPKGETTTGREKSSVSVPESSEATSAPSDDKTEKHADPCADMTQRDILDKQRRLQELSEKVRTCHHEISALRKALHEKEAEMLQVLEDIQSI | not soluble |
| MAHHHHHHMTFCGFGCVSTSEVGIIENCGKFDRTADPGCFCIVPCVESVRGVVSLKVAISTVRVETKTRDNAVVNIETRLHYKVIAECAEDAFYRFSNPSEQIASFAASVVRGEVPKYTLDELFLMSDEIKKVVSAELTEKLRGFGFSLESTLLTRIEPSASVKTAISQTQINAYRRTAAEHESELNKILAVKAAEADYEEKRLSGVGLAQERQAIMKGLKSSIESFVNAVPSMRAKDVMNLLLLNQYFDAMKEVGSGKSNKLILMPNTCGAAPNFMADLVAAQAGAARMM | not soluble |
| MAHHHHHHMTLGPTTRVTVNVTGTVTVPLHLNALESLDDAPLQEEIMREAVRLSLAEQLGGFDNFTVTSARKGGNHVCEARLDVGDLCSIIADVKNAYEHGERRLRELQQLITAIREQLKESGREGGSEDEDITVPGIVKVVSDMVEDALRGPGESSLSAAIREVSNDKSWLEEVPVGDRSGGAASKSDEDSPSGVGYTRLPDSGEDSNGSERQLE | soluble |
| MAHHHHHHMTNDTEQEQSPSAELAAAAPEPQPSQPQEFYSLRGESHNAVDQEKYGRARTHIAGLGHVSAKDVFKHYRRSWLTPFFGSNEPEPTLQQEGTQHPCQIFSREVHQCLEDHHNSFAFCQTRVAAFQQCLREFSI | not soluble |
| MAHHHHHHMTQQWFPLMAVTPDYLHCITEERFRTNVYEPEADTFLLLEALDKDAHLLRALQPRRCVEIGCGSGTVISHLMLLLLGATEGGNLGSGSAEKSTAEFHAVDVNPVALEATSITWHNTQKRIIGGDTILPLHLHRGDLFSPFEHEASDITEYTKEEKEEFTFDVILFNPPYVPTTMEELQSAEAGKDLITAAWCGGPRGRVVVDRFISKLPSFLSSRGVCYIVAIRENDVEELMEVIRGTFPNDRCYPVNVTVTAERYTGEHLRVIRVS | not soluble |
| MAHHHHHHMTVARDHDIDDHDTSFTSFGGERPPFERIPVPSMASKEYTENLPAFDSDRPMPPPRSVFERFSRVMQLQFGQDPDMPLLGSRAERKYRSWLDYVTSPPSPLLPRNYVDAYTRPNPCPEEYWWASWRWPRIKYVNAKVPPPVDGKYNDYYHYLAYKNWMERERDVYVAHANLVNEMAMRCLVKEGQYNAAKNCRHLYHKGFAMSRMEELNQTLLYMALTGNAAIRETPYPENFVEEKRKIYDDWLFRTRMKKPGDVA | not soluble |
| MAHHHHHHMTYYTVEEITDRRINENDGAIEYAVKWEGVAGELTWEKRHQLTENCAETVQAVDQRCMDATDEELERWRDGKWKRGAKRAHDAPPLVGTTTERRKRSRSVSPAAGEDLEQVEVLNGLLLRPPCGAQNAEEEGTILMLGEVVLAEEASAILNGTGSYRKKCRTATVSTAVAFHTAPALDIEKRWRGIHGQSLLHSIEVAQSITPFHPHFRLHGCDPATRCAMALEVERSSHLRIISIAPPLMTHSGAVFGLPVALDPLVGEKDVEQLRQSVQLESPLFGSAAQELVKPHVEQMVVRYIIPEVTPATDDDTATPTTELFPVHGRIASMPLSVFRVVFPQLLIDYLLTNSVVLR | not soluble |
| MAHHHHHHMVALEREYILGSFCELRIITSLSSTQLSKVTLRKPVEDEDTSTAERAEVFGTELIPGVPVHLPPGRSLSIFTSTGCTLLLVAAPTVLQRCYATSLGATWVRSLLDFHSHLERARVEARGRDDVGPRVLFVSDRHHCGASTYVRWLSNFAVRLGYHPLLLDGVLDTPAFAFPGSVALFHAQHCMDIEEEMNLTPGLYAQVGQSRVANPRLYQHWVQQLLPSGMEKMARSERCRVGGLFFDFGVVEPHAVEQAEAAAAAAVPSVDPTASASSAPAALGSDKSHTNPLDTLLDTIVAADIDHVCVVGSSWLRWKLVQRAWERFGGEGSMSIVQAMLDPRWNVPPEVDCGGGQHFKIFLLDSVELVRSVPVPLWNRQRWLQYFFGTPTSPVKPTLITLEASQVRVATVGAAAMDAMSTLLPMMDSEDVDRQKADVAAVSFITLQDVALKDRIVAISTATEYERSPDGELHRLPFSVFERRIRQSTVLGFALVESVTPERLTLLVSGCPLDKELGLCFLLTEEVLKS | not soluble |
| MAHHHHHHMVFSIPSYLCLGDRPKKVVDERLHGVNFLTSRPKTGHYPDALFDKEFRYVYNGDRYPDPETMARREQMENRKRYITATGFISVFRPKKGEGLGSNYGLLQQEPYIHMPDHPQTRGPQPFPKVKPRQIYTSPSKAGSYGTPGLAITDIGNEYIATIYDQERINAKKERDVWRQRMPPVPFKPVGRRGYTFDEGPATGVSMCYIMTCPFREKRVQPVMKHFIIDKMWLPAGYIPDRPPPVEYWEDPYNGFDPRVDPKSRLKKSEDSIFRTGFRGDNFFYTRSIVFRRL | not soluble |
| MAHHHHHHMVQLTINNARGVTLCRVSLPANATVQQLLLQLTVAKPELRQAQAIRNDVRHVTHRLTPASTTTTTTTSVVSSNAQTLLQAGLVGQGATAETLVVLMAADAPAAASSAAAAAPSPTKAVAAQILDLFGCASASPSAGVRSQASVVPSTMDERQLELQRRIYAQIQQQQIDENLANALEYTPEAFAKVTMLYVPCTINQVLVKAFVDSGAQNSIMNKRTAERCGLMRLVDVRMRGVAVGVGRQEICGRIHMTPVNLAGMYIPFAFYVIEDQAMDLIIGLDQLKRHQMMIDLKHNCLTIDNINVPFLPENDLPALAALGDDENAMHAPRHQDPATTATTASNPAAPVLSEGERQARIEGFMTVSGITDPTQAAELLEAADWNPNVAAALLFDT | soluble |
| MAHHHHHHMVTVPKLQAMREAGEKIAMLTSYDASFAALLDRANVDVQLIGDSLGNVLQGQATTLPVTLDDIAYHTACVARAQPRGLVVADLPFGTYGTPADAFASAVKLMRAGAQMVKLEGGEWLAETVRFLVERAVPVCAHVGLTPQSVHAFGGFKVQGKTEAGAAQLLRDARAVEEAGAQLIVLEAVPTLVAAEVTRELSIPTIGIGAGAECSGQVLVLHDMLGVFPGKRPRFVKDFMQGQPSIFAAVEAYVRAVKDGSFPGPEHSF | soluble |
| MAHHHHHHMWQTVVRRYRLQPTSLAAFLESNCMVAKPPTAALHSDSNLVVAETNSLSIFENLAAEESLIRGLSLDTKQRLLLFYVNRPCVVVGRNQNIFQEVSLRRAAADGVCVARRASGGGAVFHDEGNLCFSFITHRTRYAPEKTIQLVRLGLCASYAIDPARLTTTGRHDLFLDGRKITGSAMRVQRDIAYHHCTLLVDTPHASVGRYLRPEGDYVAFKTSSVGSVRSPVTSLAESGCIADGPGAVAALKGNMADFFLAEGDRVLNAATPWELDAVELRQRFTTARHRCANAPLFALDVVGAVAADMPFIEREGRQPARGDAATLGEAVHKAASKEWAYAMPTFTSTVFLSDSELRRRLKTLSVRQHVALLCSLAEEELLAVLQRCVLEGSEGPEAVAGTEAGLHLVTTVEHRLVTSVVVRRVAPTTATASAVAPSSASSGGWVQRYLSALLVGHPCDAAIEGLECVGDTTAVVQGLVHEAGSLCPDLPDAVGDAALLMVARVLLDVWRDKNVFDIAT | not soluble |
| MAHHHHHHMWRLRSPGPCAGHVARPAAFTACRVVVGSSGATSADAASFRTTSAGAALVVAHRRKSYHFFMNLDDPDATRRRIEEDLDRLASDEKKDTTAYLHSLLNLALSHYQRGDFISARDMADYTHQKALVHNSKSSLIYFTATTCAHCAEALAKEYEAHLQRKDEQSHVSATLTPEPSVVFSARRAIKKLRADAERYRGIAHRVYHRPDMAFMRGSGGGGSGRWRSSARHAEGRDTRHTWADDSSNNGVDEDYIPHMYGPRWQDRRKRPEHAEMKHYYKHQCGTSPSSRGKTQWNVPK | not soluble |
| MAHHHHHHMYEVYYLNEHDEFEKKKKKNEEIQSSLILKNHAISSEKKSKLVKHNIYEGGYTIWECTWDMLKFFHKEGFDFNNKQVLELGCGHGLVGIKVLLDNGNVVFQELNKEVINDVLLPNIKKNLKMKLKKKKLKENKHYMKINNDKITCYVINKPWHKLNSKLQKKKLNCFDFILGNEILYRKENYYHILKILKKNLKKGGKAYFGSKSYYFGFEDGTGSNSFVTYVNNNEHFNFVARIIQTTTGKSVYSKDIIEVTFSPNND | not soluble |
| MAHHHHHHMYYADVDYEVPSRVVQLTDATFDTIVMDPTKDVFVLYCVTWSRHCRSAVKLWADLSISQFKRPTADTFVAALIDAEAFPETAKRMGVKSYPTMLFYTRLEKATPLEYNGQGLLPLLDSFVFQNS | not soluble |
| MAHHHHHHSLDASTLFKKVKVKRVLGSLEQQIDDITTDSRTAREGSIFVASVGYTVDSHKFCQNVADQGCKLVVVNKEQSLPANVTQVVVPDTLRVASILAHTLYDYPSHQLVTFGVTGTNGKTSIATMIHLIQRKLQKNSAYLGTNGFQINETKTKGANTTPETVSLTKKIKEAVDAGAESMTLEVSSHGLVLGRLRGVEFDVAIFSNLTQDHLDFHGTMEAYGHAKSLLFSQLGEDLSKEKYVVLNNDDSFSEYLRTVTPYEVFSYGIDEEAQFMAKNIQESLQGVSFDFVTPFGTYPVKSPYVGKFNISNIMAAMIAVWSKGTSLETIIKAVENLEPVEGRLEVLDPSLPIDLIIDYAHTADGMNKLIDAVQPFVKQKLIFLVGMAGERDLTKTPEMGRVACRADYVIFTPDNPANDDPKMLKAELAKGATHQNYIEFDDRAEGIKHAIDIAEPGDTVVLASKGREPYQIMPGHIKVPHRDDLIGLEAAYKKFGGGPVDQEG | soluble |
| MAHHHHHHSLDSFIMRLLNKPVPGGVAVVDLGEEGPPPRAFYQGKPVLVVREEGRRWIAVVGIPLSTKPGPQKLEVRAATGNHEERFSVGSKHYREQRITLKNKRQVNPLPEDLKRIERELAEQTAAYRRFSPGLPSNLMLDKPVDGPLSSPFGLRRFFNGEERNPHSGLDFAVPAGTPIKAPAAGKVILIGDYFFNGKTVFVDHGQGFISMFCHLSKIDVKLGQQVPRGGVLGKVGATGRATGPHMHWNVSLNDARVDPAIFIGAFQPEG | soluble |
